Measured values published in patent publication US20200040059A1.
Where “and” joins values, the source holds several entries; their conditions need not be identical. Identical values can stand only once.

T1: CD226 (human) (UniProt Q15762)
T1 sequence: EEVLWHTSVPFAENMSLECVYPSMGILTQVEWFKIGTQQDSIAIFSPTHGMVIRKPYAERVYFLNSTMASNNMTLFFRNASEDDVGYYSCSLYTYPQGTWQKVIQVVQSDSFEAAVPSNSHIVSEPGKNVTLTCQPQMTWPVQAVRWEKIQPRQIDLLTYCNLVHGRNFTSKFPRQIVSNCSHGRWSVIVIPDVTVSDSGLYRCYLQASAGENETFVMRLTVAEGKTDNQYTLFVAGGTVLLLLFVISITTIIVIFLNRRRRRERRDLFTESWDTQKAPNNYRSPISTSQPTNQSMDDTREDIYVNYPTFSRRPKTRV

T2: CD96 (UniProt P40200)
T2 sequence (looked up): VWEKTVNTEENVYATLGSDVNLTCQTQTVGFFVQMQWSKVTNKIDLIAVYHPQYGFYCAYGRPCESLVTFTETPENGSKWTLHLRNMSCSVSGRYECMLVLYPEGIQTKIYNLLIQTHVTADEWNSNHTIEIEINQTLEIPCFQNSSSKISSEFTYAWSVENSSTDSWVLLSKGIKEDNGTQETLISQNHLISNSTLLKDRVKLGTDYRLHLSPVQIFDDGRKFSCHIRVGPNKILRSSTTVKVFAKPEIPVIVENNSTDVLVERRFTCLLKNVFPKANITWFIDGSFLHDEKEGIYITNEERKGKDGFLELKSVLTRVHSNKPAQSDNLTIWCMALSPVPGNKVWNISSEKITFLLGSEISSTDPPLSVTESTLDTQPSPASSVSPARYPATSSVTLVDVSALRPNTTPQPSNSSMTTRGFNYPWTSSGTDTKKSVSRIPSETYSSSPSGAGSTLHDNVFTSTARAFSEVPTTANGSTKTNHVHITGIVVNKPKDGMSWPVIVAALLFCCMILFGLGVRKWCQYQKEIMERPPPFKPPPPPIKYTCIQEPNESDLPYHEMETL


Legend:
CD226 (human) [1] = biological target: T1, CD226 (human); test: flow cytometry, CD226-expressing cells
[2] = biological target: PD-1 (Homo sapiens (Human)) (UniProt Q15116); test: flow cytometry, Jurkat/PD-1 cells
Chain of PD-1 (Homo sapiens (Human)) (Q15116 21-288 limits assumed): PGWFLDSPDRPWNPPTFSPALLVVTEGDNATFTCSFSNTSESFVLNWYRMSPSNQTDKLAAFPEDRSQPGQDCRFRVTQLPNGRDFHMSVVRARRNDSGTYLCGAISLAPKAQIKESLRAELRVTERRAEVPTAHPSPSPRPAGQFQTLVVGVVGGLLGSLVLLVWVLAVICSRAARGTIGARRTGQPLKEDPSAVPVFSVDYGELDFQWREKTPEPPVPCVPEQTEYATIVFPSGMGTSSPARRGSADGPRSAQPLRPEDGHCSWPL

[3] = biological target: PD-1 (Homo sapiens (Human)) (UniProt Q15116); test: flow cytometry, Jurkat/PD-1 cells; vs wildtype PD-L2 IgV-Fc
CD96 = biological target: T2, CD96; test: flow cytometry, cells
CD226 (human) [4] = biological target: T1, CD226 (human); test: flow cytometry, transfected cells

Binder	MFI at 50 nM [2]	Fold increase over wildtype PD-L2 IgV-Fc [3] [fold]	further results
CD155 variant IgV-Fc P18T, D23G, S24A, N35D, H49L, L79P, F91S, L104M, G111R (Fc fusion, not shown: a dimerising Fc or GST; small tags and cut ends) PGTGDVVVQAPTQVTGFLGGAVTLPCYLQVPDMEVTHVSQLTWARLGESGSMAVFHQTQGPSYSESKRLEFVAARPGAELRNASLRMSGLRVEDEGNYTCMFVTFPQRSRSVDIWL			MFI at 11.1 nM (CD226 (human) [1]): 987 MFI
CD155 variant IgV-Fc P18F, S65A, S67V, F91S, L104M, G111R (Fc fusion, not shown: a dimerising Fc or GST; small tags and cut ends) WPPPGTGDVVVQAPTQVFGFLGDSVTLPCYLQVPNMEVTHVSQLTWARHGESGSMAVFHQTQGPAYVESKRLEFVAARLGAELRNASLRMSGLRVEDEGNYTCMFVTFPQRSRSVDIWL			Fold Change from CD155-ECD (CD226 (human) [1]): 0.06 fold; MFI at 11.1 nM (CD226 (human) [1]): 901 MFI
CD155 variant IgV-Fc V9L, P18L, L79P, M90I, F91S, T102S, L104M, G111R (Fc fusion, not shown: a dimerising Fc or GST; small tags and cut ends) WPPPGTGDLVVQAPTQVLGFLGDSVTLPCYLQVPNMEVTHVSQLTWARHGESGSMAVFHQTQGPSYSESKRLEFVAARPGAELRNASLRISGLRVEDEGNYSCMFVTFPQRSRSVDIWL			Fold Change from CD155-ECD (CD226 (human) [1]): 0.06 fold; MFI at 11.1 nM (CD226 (human) [1]): 910 MFI
CD155 variant IgV-Fc P18C, T26M, L44V, M55I, Q62K, L79P, F91S, L104M, T107M (Fc fusion, not shown: a dimerising Fc or GST; small tags and cut ends) WPPPGTGDVVVQAPTQVCGFLGDSVMLPCYLQVPNMEVTHVSQVTWARHGESGSIAVFHQTKGPSYSESKRLEFVAARPGAELRNASLRMSGLRVEDEGNYTCMFVMFPQGSRSVDIWL			Fold Change from CD155-ECD (CD226 (human) [1]): 0.06 fold; MFI at 11.1 nM (CD226 (human) [1]): 973 MFI
CD155 variant IgV-Fc V9I, P18T, D23G, L79P, F91S, G111R (Fc fusion, not shown: a dimerising Fc or GST; small tags and cut ends) WPPPGTGDIVVQAPTQVTGFLGGSVTLPCYLQVPNMEVTHVSQLTWARHGESGSMAVFHQTQGPSYSESKRLEFVAARPGAELRNASLRMSGLRVEDEGNYTCLFVTFPQRSRSVDIWL			Fold Change from CD155-ECD (CD226 (human) [1]): 0.06 fold; MFI at 11.1 nM (CD226 (human) [1]): 897 MFI
CD155 variant IgV-Fc P18F, L79P, M90L, F91S, V95A, L104M, G111R (Fc fusion, not shown: a dimerising Fc or GST; small tags and cut ends) WPPPGTGDVVVQAPTQVFGFLGDSVTLPCYLQVPNMEVTHVSQLTWARHGESGSMAVFHQTQGPSYSESKRLEFVAARPGAELRNASLRLSGLRAEDEGNYTCMFVTFPQRSRSVDIWL			Fold Change from CD155-ECD (CD226 (human) [1]): 0.06 fold and 0.07 fold; MFI at 11.1 nM (CD226 (human) [1]): 917 MFI and 1070 MFI
variant PD-L2 IgV-Fc E44D, S67L, Q72H, Q82R, V89D (Fc fusion, not shown: a dimerising Fc or GST; small tags and cut ends) FTVTVPKELYIIEHGSNVTLECNFDTGSHVNLGAITASLQKVDNDTSPHRERATLLEEQLPLGKALFHIPHVQVRDEGQYRCIIIYGDAWDYKYLTLK	51500	5.23	
variant PD-L2 IgV-Fc H15Q, V89D (Fc fusion, not shown: a dimerising Fc or GST; small tags and cut ends) FTVTVPKELYIIEQGSNVTLECNFDTGSHVNLGAITASLQKVENDTSPHRERATLLEEQLPLGKASFHIPQVQVRDEGQYQCIIIYGDAWDYKYLTLK	17700	1.8	
variant PD-L2 IgV-Fc H15Q, T47A (Fc fusion, not shown: a dimerising Fc or GST; small tags and cut ends) FTVTVPKELYIIEQGSNVTLECNFDTGSHVNLGAITASLQKVENDASPHRERATLLEEQLPLGKASFHIPQVQVRDEGQYQCIIIYGVAWDYKYLTLK	26600	2.7	
variant PD-L2 IgV-Fc I13V, H15Q, Q82R (Fc fusion, not shown: a dimerising Fc or GST; small tags and cut ends) FTVTVPKELYIVEQGSNVTLECNFDTGSHVNLGAITASLQKVENDTSPHRERATLLEEQLPLGKASFHIPQVQVRDEGQYRCIIIYGVAWDYKYLTLK	76100	7.74	
variant PD-L2 IgV-Fc I13V, H15Q, V89D (Fc fusion, not shown: a dimerising Fc or GST; small tags and cut ends) FTVTVPKELYIVEQGSNVTLECNFDTGSHVNLGAITASLQKVENDTSPHRERATLLEEQLPLGKASFHIPQVQVRDEGQYQCIIIYGDAWDYKYLTLK	28700	2.92	
variant PD-L2 IgV-Fc I13V, S67L, Q82R, V89D (Fc fusion, not shown: a dimerising Fc or GST; small tags and cut ends) FTVTVPKELYIVEHGSNVTLECNFDTGSHVNLGAITASLQKVENDTSPHRERATLLEEQLPLGKALFHIPQVQVRDEGQYRCIIIYGDAWDYKYLTLK	59000	5.99	
variant PD-L2 IgV-Fc I13V, H15Q, Q82R, V89D (Fc fusion, not shown: a dimerising Fc or GST; small tags and cut ends) FTVTVPKELYIVEQGSNVTLECNFDTGSHVNLGAITASLQKVENDTSPHRERATLLEEQLPLGKASFHIPQVQVRDEGQYRCIIIYGDAWDYKYLTLK	49500	5.03	
variant PD-L2 IgV-Fc H15Q, V31M, S67L, Q82R, V89D (Fc fusion, not shown: a dimerising Fc or GST; small tags and cut ends) FTVTVPKELYIIEQGSNVTLECNFDTGSHMNLGAITASLQKVENDTSPHRERATLLEEQLPLGKALFHIPQVQVRDEGQYRCIIIYGDAWDYKYLTLK	67400	6.85	
variant PD-L2 IgV-Fc I13V, H15Q, T47A, Q82R (Fc fusion, not shown: a dimerising Fc or GST; small tags and cut ends) FTVTVPKELYIVEQGSNVTLECNFDTGSHVNLGAITASLQKVENDASPHRERATLLEEQLPLGKASFHIPQVQVRDEGQYRCIIIYGVAWDYKYLTLK	89100	9.05	
variant PD-L2 IgV-Fc I13V, H15Q, V31A, N45S, Q82R, V89D (Fc fusion, not shown: a dimerising Fc or GST; small tags and cut ends) FTVTVPKELYIVEQGSNVTLECNFDTGSHANLGAITASLQKVESDTSPHRERATLLEEQLPLGKASFHIPQVQVRDEGQYRCIIIYGDAWDYKYLTLK	68000	6.91	
variant PD-L2 IgV-Fc H15Q, T47A, H69L, Q82R, V89D (Fc fusion, not shown: a dimerising Fc or GST; small tags and cut ends) FTVTVPKELYIIEQGSNVTLECNFDTGSHVNLGAITASLQKVENDASPHRERATLLEEQLPLGKASFLIPQVQVRDEGQYRCIIIYGDAWDYKYLTLK	65600	6.66	
variant PD-L2 IgV-Fc I13V, H15Q, T47A, H69L, R76G, V89D (Fc fusion, not shown: a dimerising Fc or GST; small tags and cut ends) FTVTVPKELYIVEQGSNVTLECNFDTGSHVNLGAITASLQKVENDASPHRERATLLEEQLPLGKASFLIPQVQVGDEGQYQCIIIYGDAWDYKYLTLK	54300	5.52	
variant PD-L2 IgV-Fc I12V, I13V, H15Q, T47A, Q82R, V89D (Fc fusion, not shown: a dimerising Fc or GST; small tags and cut ends) FTVTVPKELYVVEQGSNVTLECNFDTGSHVNLGAITASLQKVENDASPHRERATLLEEQLPLGKASFHIPQVQVRDEGQYRCIIIYGDAWDYKYLTLK	61200	6.22	
variant PD-L2 IgV-Fc I13V, H15Q, R76G, D77N, Q82R, V89D (Fc fusion, not shown: a dimerising Fc or GST; small tags and cut ends) FTVTVPKELYIVEQGSNVTLECNFDTGSHVNLGAITASLQKVENDTSPHRERATLLEEQLPLGKASFHIPQVQVGNEGQYRCIIIYGDAWDYKYLTLK	33100	3.36	
variant PD-L2 IgV-Fc I13V, H15Q, T47A, Q82R, V89D (SEQ ID NO 1544) (Fc fusion, not shown: a dimerising Fc or GST; small tags and cut ends) FTVTVPKELYIVEQGSNVTLECNFDTGSHVNLGAITASLQKVENDASPHRERATLLEEQLPLGKASFHIPQVQVRDEGQYRCIIIYGDAWDYKYLTLK	63300	6.43	
CD155 P18S, P64S, F91S IgV-Fc (Fc fusion, not shown: a dimerising Fc or GST; small tags and cut ends) PGTGDVVVQAPTQVSGFLGDSVTLPCYLQVPNMEVTHVSQLTWARHGESGSMAVFHQTQGSSYSESKRLEFVAARLGAELRNASLRMSGLRVEDEGNYTCLFVTFPQGSRSVDIWL			MFI (CD96): 140000; MFI (CD226 (human) [4]): 498000
CD155 P18S, F91S, L104P IgV-Fc (Fc fusion, not shown: a dimerising Fc or GST; small tags and cut ends) PGTGDVVVQAPTQVSGFLGDSVTLPCYLQVPNMEVTHVSQLTWARHGESGSMAVFHQTQGPSYSESKRLEFVAARLGAELRNASLRMSGLRVEDEGNYTCPFVTFPQGSRSVDIWL			MFI (CD96): 10900; MFI (CD226 (human) [4]): 26200
CD155 L44P IgV-Fc (Fc fusion, not shown: a dimerising Fc or GST; small tags and cut ends) PGTGDVVVQAPTQVPGFLGDSVTLPCYLQVPNMEVTHVSQPTWARHGESGSMAVFHQTQGPSYSESKRLEFVAARLGAELRNASLRMFGLRVEDEGNYTCLFVTFPQGSRSVDIWL			MFI (CD96): 152000; MFI (CD226 (human) [4]): 581000
CD155 A56V IgV-Fc (Fc fusion, not shown: a dimerising Fc or GST; small tags and cut ends) PGTGDVVVQAPTQVPGFLGDSVTLPCYLQVPNMEVTHVSQLTWARHGESGSMVVFHQTQGPSYSESKRLEFVAARLGAELRNASLRMFGLRVEDEGNYTCLFVTFPQGSRSVDIWL			MFI (CD96): 161000; MFI (CD226 (human) [4]): 455000
CD155 P18T, F91S IgV-Fc (Fc fusion, not shown: a dimerising Fc or GST; small tags and cut ends) PGTGDVVVQAPTQVTGFLGDSVTLPCYLQVPNMEVTHVSQLTWARHGESGSMAVFHQTQGPSYSESKRLEFVAARLGAELRNASLRMSGLRVEDEGNYTCLFVTFPQGSRSVDIWL			MFI (CD96): 158000; MFI (CD226 (human) [4]): 401000
CD155 P18T, S42P, F91S IgV-Fc (Fc fusion, not shown: a dimerising Fc or GST; small tags and cut ends) PGTGDVVVQAPTQVTGFLGDSVTLPCYLQVPNMEVTHVPQLTWARHGESGSMAVFHQTQGPSYSESKRLEFVAARLGAELRNASLRMSGLRVEDEGNYTCLFVTFPQGSRSVDIWL			MFI (CD96): 135000; MFI (CD226 (human) [4]): 554000
